This passage reports Kd results from paper PMC5603541.

The test system of the data set is BoHV-1 whole virus (purified virion) (Bovine herpesvirus 1 (BK1952, CVCC; Methods also says field isolate from China)). As to the kind of experiment: ELONA.

“GCTGCAATACTCATGGACAGGGCGGCGGGGTGGGGTGGGCGGTTTGATTCCCATGGGTGCGTCTGGAGTACGACCCTGAA [IBRV-A4]”: the Kd stood at 3.52 nM.
